# Measured values from article PMC5109244.
# Legend:
# [1] = target: long mouse DNGR-1 ECD (extracellular domain of the long isoform of mouse DNGR-1, wild type) (mouse); experiment: reducing SDS-PAGE and Western blot; purified ECD diluted into buffers of low pH and low ionic strength (10 mM MES pH 6.1; 10 mM Tris; 36 buffers of pH 6.5–8.05 and 15–250 mM ionic strength); 100 mM DTT in Laemmli buffer; reduction-resistant (type-2) dimers
# [2] = target: long mouse DNGR-1 ECD (extracellular domain of the long isoform of mouse DNGR-1, wild type) (mouse); experiment: non-reducing SDS-PAGE and Western blot; supernatants of 293F cells with FLAG-tagged ECD proteins, Laemmli buffer without reducing agent, HRP-conjugated anti-FLAG detection
# [3] = target: long mouse DNGR-1 ECD (extracellular domain of the long isoform of mouse DNGR-1, wild type) (mouse); experiment: non-reducing SDS-PAGE and Western blot; purified long mouse ECD in PBS or 10 mM MES pH 6.1, Laemmli buffer or 8 M urea, no reducing agent
# [4] = target: Δ6A mutant long mouse DNGR-1 ECD (all residues of block 6, Q95–S104, replaced by alanines) (mouse); experiment: non-reducing SDS-PAGE and Western blot; supernatants of 293F cells with FLAG-tagged ECD proteins, Laemmli buffer without reducing agent, HRP-conjugated anti-FLAG detection
# [5] = target: Δ3A mutant long mouse DNGR-1 ECD (all residues of block 3, L72–L82, replaced by alanines) (mouse); experiment: as above
# [6] = target: Δ4 mutant long mouse DNGR-1 ECD (N81–T90 removed) (mouse); experiment: reducing SDS-PAGE and Western blot; supernatants with FLAG-tagged ECD proteins, neat or diluted into PBS (neutral conditions); reduced with DTT (100 mM) or β-ME in Laemmli buffer; anti-FLAG detection
# [7] = target: Δ4 mutant long mouse DNGR-1 ECD (N81–T90 removed) (mouse); experiment: reducing SDS-PAGE and Western blot; supernatants with FLAG-tagged ECD proteins diluted into 10 mM MES pH 6.1; 100 mM DTT in Laemmli buffer; anti-FLAG detection; reduction-resistant (type-2) dimers
# [8] = target: chimeric DNGR-1:dectin-1 ECD (neck region of long mouse DNGR-1 fused to the CTLD of dectin-1) (mouse); experiment: non-reducing SDS-PAGE and Western blot; supernatants of 293F cells with FLAG-tagged ECD proteins, Laemmli buffer without reducing agent, HRP-conjugated anti-FLAG detection
# [9] = target: full-length WT DNGR-1 (mouse, long isoform), transmembrane receptor (mouse); experiment: reducing SDS-PAGE and Western blot; Phoenix cells expressing full-length DNGR-1 lysed in 1% SDS in 10 mM MES pH 6.1; reducing conditions; anti-DNGR-1 (clone 397) detection
# [10] = target: full-length WT DNGR-1 (mouse, long isoform), transmembrane receptor (mouse); experiment: reducing SDS-PAGE and Western blot; Phoenix cells expressing full-length DNGR-1 lysed in 1% SDS in PBS; reducing conditions; anti-DNGR-1 (clone 397) detection; reduction-sensitive (type-1) dimers run as monomers
# [11] = target: Δ4A mutant long mouse DNGR-1 ECD (all residues of block 4, N81–T90, replaced by alanines) (mouse); experiment: non-reducing SDS-PAGE and Western blot; supernatants of 293F cells with FLAG-tagged ECD proteins, Laemmli buffer without reducing agent, HRP-conjugated anti-FLAG detection
# [12] = target: Δ4A mutant long mouse DNGR-1 ECD (all residues of block 4, N81–T90, replaced by alanines) (mouse); experiment: reducing SDS-PAGE and Western blot; supernatants with FLAG-tagged ECD proteins, neat or diluted into PBS (neutral conditions); reduced with DTT (100 mM) or β-ME in Laemmli buffer; anti-FLAG detection
# [13] = target: full-length Δ4 DNGR-1 (mouse, long isoform; N81–T90 removed) (mouse); experiment: reducing SDS-PAGE and Western blot; Phoenix cells expressing full-length DNGR-1 lysed in 1% SDS in 10 mM MES pH 6.1; reducing conditions; anti-DNGR-1 (clone 397) detection
# [14] = target: full-length Δ4 DNGR-1 (mouse, long isoform; N81–T90 removed) (mouse); experiment: reducing SDS-PAGE and Western blot; Phoenix cells expressing full-length DNGR-1 lysed in 1% SDS in PBS; reducing conditions; anti-DNGR-1 (clone 397) detection; reduction-sensitive (type-1) dimers run as monomers
# Chain of long mouse DNGR-1 ECD (extracellular domain of the long isoform of mouse DNGR-1, wild type) (domain or fragment) (Q8BRU4 113-235): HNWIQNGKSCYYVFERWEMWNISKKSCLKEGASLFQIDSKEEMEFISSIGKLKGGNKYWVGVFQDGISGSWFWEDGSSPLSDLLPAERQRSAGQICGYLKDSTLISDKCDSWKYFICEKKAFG
# Chain of full-length WT DNGR-1 (mouse, long isoform), transmembrane receptor (Q8BRU4 whole entry, canonical isoform): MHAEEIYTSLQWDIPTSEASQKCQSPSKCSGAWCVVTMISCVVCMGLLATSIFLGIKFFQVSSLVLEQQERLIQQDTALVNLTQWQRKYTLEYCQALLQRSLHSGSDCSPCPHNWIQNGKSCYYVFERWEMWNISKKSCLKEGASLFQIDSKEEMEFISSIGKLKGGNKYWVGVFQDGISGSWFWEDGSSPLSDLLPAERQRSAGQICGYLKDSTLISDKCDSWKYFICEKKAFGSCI
substance,measurement,setting,value
"long mouse DNGR-1 ECD (extracellular domain of the long isoform of mouse DNGR-1, wild type) (domain or fragment)",stoichiometry N,[1],2
same,stoichiometry N,[2],2
same,stoichiometry N,[3],2
"Δ6A mutant long mouse DNGR-1 ECD (all residues of block 6, Q95–S104, replaced by alanines) (domain or fragment)",stoichiometry N,[4],2
"Δ3A mutant long mouse DNGR-1 ECD (all residues of block 3, L72–L82, replaced by alanines) (domain or fragment)",stoichiometry N,[5],2
Δ4 mutant long mouse DNGR-1 ECD (N81–T90 removed) (domain or fragment),stoichiometry N,[6],2
same,stoichiometry N,[7],2
chimeric DNGR-1:dectin-1 ECD (neck region of long mouse DNGR-1 fused to the CTLD of dectin-1),stoichiometry N,[8],2
"full-length WT DNGR-1 (mouse, long isoform), transmembrane receptor",stoichiometry N,[9],2
same,stoichiometry N,[10],2
"Δ4A mutant long mouse DNGR-1 ECD (all residues of block 4, N81–T90, replaced by alanines) (domain or fragment)",stoichiometry N,[11],2
same,stoichiometry N,[12],2
"full-length Δ4 DNGR-1 (mouse, long isoform; N81–T90 removed) (receptor)",stoichiometry N,[13],2
same,stoichiometry N,[14],2
